This is an account of results in IntAct's records for PubMed 23892456.

The target in experiment [1] is nanog_mouse Nanog (UniProt Q80Z64).
The target is the same in experiment [2]. This is another data set of the same source.
Experiment [3] has the same target. This is another data set of the same source.

Chain of nanog_mouse Nanog (Q80Z64 whole entry): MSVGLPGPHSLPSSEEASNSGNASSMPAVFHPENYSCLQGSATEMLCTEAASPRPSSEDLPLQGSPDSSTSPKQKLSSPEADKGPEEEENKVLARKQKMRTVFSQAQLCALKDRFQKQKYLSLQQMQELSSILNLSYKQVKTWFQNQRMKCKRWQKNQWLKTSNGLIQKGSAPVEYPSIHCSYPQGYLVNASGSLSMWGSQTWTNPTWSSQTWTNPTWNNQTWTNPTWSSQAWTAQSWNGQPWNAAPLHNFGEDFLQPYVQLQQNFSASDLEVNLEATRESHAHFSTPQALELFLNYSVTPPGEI
Chain of Transcription factor SOX-2 (Mus musculus), P48432 T224A (P48432 whole entry T224A): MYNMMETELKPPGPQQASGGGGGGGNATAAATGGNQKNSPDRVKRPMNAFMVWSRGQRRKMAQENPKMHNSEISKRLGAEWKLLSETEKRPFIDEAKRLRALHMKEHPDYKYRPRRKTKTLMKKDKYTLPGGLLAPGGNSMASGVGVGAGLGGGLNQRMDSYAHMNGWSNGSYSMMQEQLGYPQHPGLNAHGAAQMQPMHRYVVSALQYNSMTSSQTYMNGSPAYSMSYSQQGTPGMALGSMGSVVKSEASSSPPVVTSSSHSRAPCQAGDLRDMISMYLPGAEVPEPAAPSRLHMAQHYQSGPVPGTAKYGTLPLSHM
Chain of Transcription factor SOX-2 (Mus musculus), P48432 T217A;T224A;S228A (P48432 whole entry T217A/T224A/S228A): as the sequence (P48432 whole entry T224A) above, with T217A, S228A counted along it
Chain of Transcription factor SOX-2 (Mus musculus), P48432 S228A (P48432 whole entry S228A): as the sequence (P48432 whole entry T224A) above, with A224T, S228A counted along it
Chain of Transcription factor SOX-2 (Mus musculus), P48432 T217A (P48432 whole entry T217A): as the sequence (P48432 whole entry T224A) above, with T217A, A224T counted along it

For “Transcription factor SOX-2 (Mus musculus), P48432 S228A”, the “effect of a mutation on the interaction” value with nanog_mouse Nanog [1] is “disrupting interaction”.

“Transcription factor SOX-2 (Mus musculus), P48432 T217A”: the “effect of a mutation on the interaction” value with nanog_mouse Nanog [2] is “disrupting interaction”. On to “Transcription factor SOX-2 (Mus musculus), P48432 T217A;T224A;S228A”, for which, in the experiment with nanog_mouse Nanog [3], the “effect of a mutation on the interaction” value is “disrupting interaction”. As to “Transcription factor SOX-2 (Mus musculus), P48432 T224A”, the “effect of a mutation on the interaction” value in the experiment with nanog_mouse Nanog [1] is reported as “disrupting interaction”.
